For the assay, the target named is YFP-PAX5-Foldon (not stated | phage T4) (UniProt P10104). Kind of assay: SEC. (SEC sorts molecules by how far they enter the pores of the column.)

One may read the stoichiometry N as a count of units in the complex or per binding partner. Turning to “YFP-PAX5-Foldon (from UniProt P10104 458-484)”, the stoichiometry N is 3.

These data come from publication PMC3197879.
